These results are taken from patent US20190351049A1 (Regeneron, published 2019).

Experiment [1] deals with T1, MERS RBD-hFc (MERS-CoV (isolate EMC/2012)). The experiment is described as follows: SPR Biacore, captured mAb, 25 C.
Experiment [2] addresses T1, MERS RBD-hFc. Kind of experiment: SPR Biacore, captured mAb, 37 C. A general note: SPR reads the build-up and loss of mass on a sensor chip optically.

B1: H1H15188P (antibody, V domains shown)
VH: QVQLVQSGAEVKKPGSSVKVSCKASGGSFSVYAISWVRQAPGQGLEWMGGIIPIFGTANYAQKFQDRFTITTDESTSTAYMELSSLRSEDTAMYYCAREGDIVVLPAGKGGMDVWGQGTTVTVSS
VL: DIVMTQSPLSLPVTPGEPASISCRSSQSLLHGNGYNYLDWYLQKPGQSPQLLIYLVSHRASGVPDRFSGSGSGTDFTLKISRVEAEDVGVYYCMQALQSPWTFGQGTKVEIK
For B1, in the experiment with MERS RBD-hFc [1], the Kd stood at 0.0825 nM, the koff amounted to 0.000122 s⁻¹, the kon turned out to be 1.48e+06 M⁻¹ s⁻¹ and the t1/2 was determined as 1.58 h. In the experiment with MERS RBD-hFc [2], this molecule gave a Kd of 0.167 nM, a koff of 0.000265 s⁻¹, a kon of 1.59e+06 M⁻¹ s⁻¹ and a t1/2 of 0.733 h.

B2: H1H15228P2 (antibody, V domains shown)
VH: EVQLVESGGGLVQPGGSLRLSCAVFGFTFSGYAMSWVRQAPGKGLEWVSAISGGGGSTYYTDSVKGRFTISRDNSKNTLYLQMNSLRAEDTAVYYCASYWNNGMDVWGQGTTVTVSS
VL: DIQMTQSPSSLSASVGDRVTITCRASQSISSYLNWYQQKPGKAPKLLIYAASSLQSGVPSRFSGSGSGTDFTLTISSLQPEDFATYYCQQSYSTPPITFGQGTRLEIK
Turning to B2, in the experiment with MERS RBD-hFc [1], the Kd is 0.418 nM, the koff was 0.000185 s⁻¹, the association rate constant (kon) turned out to be 443000 M⁻¹ s⁻¹ and the t1/2 worked out at 1.05 h. Further, in the experiment with MERS RBD-hFc [2], the affinity, expressed as Kd, was 0.975 nM; the koff amounted to 0.000464 s⁻¹; the kon came out at 476000 M⁻¹ s⁻¹; the t1/2 is 0.417 h.

B3: H1H15177P (antibody, V domains shown)
VH: EVQLVESGGGLVQPGGSLRLSCSASGFTFSSYDMSWVRQAPGKGLEWVSAIRGSGHTTYYADSVKGRFTISRDNSKNTLYLEMNSLRAEDTAVYYCVKDGSIVGFDPWGQGTLVTVSS
VL: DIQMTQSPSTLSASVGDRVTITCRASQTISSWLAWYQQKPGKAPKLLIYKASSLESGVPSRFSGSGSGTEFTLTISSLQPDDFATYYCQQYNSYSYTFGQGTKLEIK
As for B3, in the experiment with MERS RBD-hFc [1], the Kd is 0.39 nM, the off-rate constant (koff) was determined as 0.000192 s⁻¹, the kon was 493000 M⁻¹ s⁻¹ and the t1/2 stood at 1 h. Besides, in the experiment with MERS RBD-hFc [2], the affinity, expressed as Kd, was 1.23 nM; the koff is 0.000701 s⁻¹; the kon was found to be 568000 M⁻¹ s⁻¹; the t1/2 came out at 0.267 h.

B4: H1H15203P (antibody, V domains shown)
VH: EVQLVESGGDLVQPGGSLRVSCAASGFTFSNYDMYWVRQAPGKGLEWVSVISGIGATTYYADSVKGRFTISRDNSKNTVFLQMNSLRAEDTAVYYCVKGGPIVATDYWGQGTLVTVSS
VL: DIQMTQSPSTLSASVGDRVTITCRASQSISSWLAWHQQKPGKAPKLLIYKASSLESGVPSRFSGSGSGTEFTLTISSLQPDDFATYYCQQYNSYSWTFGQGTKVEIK
For the molecule B4, in the experiment with MERS RBD-hFc [1], the Kd amounted to 0.273 nM, the koff came to 0.000121 s⁻¹, the kon turned out to be 443000 M⁻¹ s⁻¹ and the t1/2 is 1.58 h. In addition, in the experiment with MERS RBD-hFc [2], the Kd came to 0.645 nM, the koff was 0.000323 s⁻¹, the kon stood at 501000 M⁻¹ s⁻¹ and the t1/2 was 0.6 h.

B5: H1H15249P2 (antibody, V domains shown)
VH: QLQLQESGPGLVKPSETLSLTCTVSGGSISNNNYYWGWIRQPPGKGLDWIGSIYYSGNTYYNPSLKSRVTISVDTSKNQFSLKMSSVTATDTALYYCARQGADHNWVDPWGQGTLVTVSS
VL: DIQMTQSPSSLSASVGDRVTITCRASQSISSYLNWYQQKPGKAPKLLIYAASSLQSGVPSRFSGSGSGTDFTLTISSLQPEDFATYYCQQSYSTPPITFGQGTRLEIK
In the experiment with MERS RBD-hFc [1], B5 had a Kd of 0.227 nM, a koff of 7.91e-05 s⁻¹, a kon of 349000 M⁻¹ s⁻¹ and a t1/2 of 2.43 h. Besides, in the experiment with MERS RBD-hFc [2], binding was put at a Kd of 0.288 nM, the koff turned out to be 0.000127 s⁻¹, the kon was 442000 M⁻¹ s⁻¹ and the t1/2 was 1.52 h.

B6: H1H15253P2 (antibody, V domains shown)
VH: EVQLVESGGGLVQPGGSLRLSCVVSGFTSRNYAMSWVRQAPGKGLEWVSAISGSGGSTYYADSVKGRFTISRDNPKNTLYLQMNSLRAEDTALYYCAEDPGTSFDYWGQGTLVTVSS
VL: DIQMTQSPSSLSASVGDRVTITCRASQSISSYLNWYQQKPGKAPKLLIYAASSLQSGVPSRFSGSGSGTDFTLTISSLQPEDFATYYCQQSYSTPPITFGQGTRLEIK
For the molecule B6, in the experiment with MERS RBD-hFc [1], the Kd worked out at 0.348 nM, the koff was 0.000124 s⁻¹, the kon was 356000 M⁻¹ s⁻¹ and the t1/2 amounted to 1.55 h. In the experiment with MERS RBD-hFc [2], binding was characterised by a dissociation constant (Kd) of 1.44 nM, the koff was found to be 0.000629 s⁻¹, the kon is 436000 M⁻¹ s⁻¹ and the t1/2 is 0.3 h.

B7: H1H15237P2 (antibody, V domains shown)
VH: EVQLVESGGGLVQPGGSLRLSCAASGFTSNSYPMSWVRQAPGKGLEWVSGISGRGGNTYYADSVKGRFTISRDNSKNTLYLQMNSLRVEDTAVYYCAETGTAFDYWGQGTLVTVSS
VL: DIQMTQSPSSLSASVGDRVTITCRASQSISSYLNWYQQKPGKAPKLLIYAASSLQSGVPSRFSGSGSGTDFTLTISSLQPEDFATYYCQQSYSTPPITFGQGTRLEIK
In the case of B7, in the experiment with MERS RBD-hFc [1], binding was characterised by a dissociation constant (Kd) of 0.274 nM, the koff was 0.00012 s⁻¹, the kon amounted to 439000 M⁻¹ s⁻¹ and the t1/2 came to 1.6 h. In the experiment with MERS RBD-hFc [2], this molecule came in with a Kd of 0.797 nM, a koff of 0.000409 s⁻¹, a kon of 514000 M⁻¹ s⁻¹ and a t1/2 of 0.467 h.

B8: H1H15231P2 (antibody, V domains shown)
VH: QLQLQESGPGLVKPSETLSLTCTVSGGSISSNTYYWGWIRQPPGKGLEWIGTIYYTGNTYYKSSLKSRVTISVDTSRNQFSLKLTSVTAADTAVYYCARQFADLNYVDYWGQGTLVTVSS
VL: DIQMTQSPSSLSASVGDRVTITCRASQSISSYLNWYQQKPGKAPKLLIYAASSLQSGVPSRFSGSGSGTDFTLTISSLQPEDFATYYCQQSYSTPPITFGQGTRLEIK
Regarding B8, in the experiment with MERS RBD-hFc [1], the Kd amounted to 0.116 nM, the koff amounted to 7.44e-05 s⁻¹, the kon turned out to be 639000 M⁻¹ s⁻¹ and the t1/2 was 2.58 h. In the experiment with MERS RBD-hFc [2], this molecule gave a Kd of 0.139 nM, a koff of 9.19e-05 s⁻¹, a kon of 659000 M⁻¹ s⁻¹ and a t1/2 of 2.1 h.

B9: H1H15233P2 (antibody, V domains shown)
VH: EVQLVESGGGLVQPGGSLRLSCAASGFSFSSYGMNWVRQAPGKGLEWVSAISGRGGNTYSADSVKGRFTISRDNSKNTLFLQMNGLRAEDSAFYYCAKVGTYSSSSPFDYWGQGTLVTVSS
VL: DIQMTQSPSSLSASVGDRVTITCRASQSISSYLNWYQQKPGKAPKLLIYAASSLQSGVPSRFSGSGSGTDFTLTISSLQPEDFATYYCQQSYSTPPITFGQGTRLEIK
In the experiment with MERS RBD-hFc [1], B9 returned a Kd of 0.229 nM, a koff of 4.56e-05 s⁻¹, a kon of 199000 M⁻¹ s⁻¹ and a t1/2 of 4.22 h. Further, in the experiment with MERS RBD-hFc [2], the Kd stood at 0.127 nM, the koff came out at 4.74e-05 s⁻¹, the kon worked out at 374000 M⁻¹ s⁻¹ and the t1/2 worked out at 4.07 h.

B10: H1H15208P (antibody, V domains shown)
VH: EVQLVESGGDLVQPGGSLRLSCTASGFTFSNYEMNWVRQAPEKGLDWVSFISSSGGAIYYADSVKGRFTISRDNAKNSLYLQMNSLRAEDSAIYFCARSDSGGNSRYWGQGTLVTVSS
VL: DIQMTQSPSSVSASVGDRVTVTCRASQDISNWLVWYQQKPGKAPKFLIYAASSLQSGVPSRFSGSGSGTDFTLTISSLQPEDFATYYCQQANSFPPTFGGGTKVEIK
In the experiment with MERS RBD-hFc [1], B10 yielded a Kd of 0.553 nM, a koff of 0.000243 s⁻¹, a kon of 439000 M⁻¹ s⁻¹ and a t1/2 of 0.8 h. In the experiment with MERS RBD-hFc [2], this molecule registered an equilibrium dissociation constant (Kd) of 1.01 nM, a koff of 0.000531 s⁻¹, a kon of 525000 M⁻¹ s⁻¹ and a t1/2 of 0.367 h.

B11: H1H15211P (antibody, V domains shown)
VH: EVQLVESGGGLVQPGGSLRLSCVVSGFTFSNYDMSWVRQAPGRGLEWVSAIRGSGFNTYYADSVKGRFTISRDNSKNTLYLQMNSLRAEDTAVYYCAKDGSIVSMDYWGQGTLVTVSS
VL: not shown
In the experiment with MERS RBD-hFc [1], B11 came in with a Kd of 0.0775 nM, an off-rate (koff) of 8.72e-05 s⁻¹, a kon of 1.13e+06 M⁻¹ s⁻¹ and a t1/2 of 2.22 h. In addition, in the experiment with MERS RBD-hFc [2], the Kd turned out to be 0.194 nM, the koff was determined as 0.00016 s⁻¹, the kon worked out at 827000 M⁻¹ s⁻¹ and the t1/2 was 1.2 h.

B12: H1H15215P (antibody, V domains shown)
VH: EVQLVESGGGLVQPGGSLRLSCAASGFTFSTYGMSWVRQAPGKGLEWVSTIIGSGYNTYYSDSVKGRFTMSRDNSKSTLYLQMNSLRAEDTAVYYCTKEGPIIGTTNWGQGTLVTVSS
VL: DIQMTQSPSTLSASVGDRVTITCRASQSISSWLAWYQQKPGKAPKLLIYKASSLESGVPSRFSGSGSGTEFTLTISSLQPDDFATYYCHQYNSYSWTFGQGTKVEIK
B12: in the experiment with MERS RBD-hFc [1], the Kd came to 0.671 nM, the koff stood at 9.67e-05 s⁻¹, the kon was 144000 M⁻¹ s⁻¹ and the t1/2 amounted to 1.98 h. In the experiment with MERS RBD-hFc [2], this molecule yielded a Kd of 1.68 nM, a koff of 0.000233 s⁻¹, a kon of 138000 M⁻¹ s⁻¹ and a t1/2 of 0.833 h.

One may read the Kd as the constant that tells how readily two partners part at equilibrium. The term koff denotes the rate constant with which the complex falls apart. Lower therefore signals slow dissociation. Usually kon stands for the rate constant with which the complex forms. Lower therefore signals slow association.
